Assay results published in patent publication US20260242478A1 (published 2026).
Where no end group is shown, it is not given here.

How the values were obtained:
anti-CD28 Fab = experiment: competition ELISA, peptide titrated 0-100 uM against 1 nM anti-CD28 Fab, plate-bound CD28 as competitor
[1] = biological target: T1, Anti-CD28 Fab (SEQ ID NOs: 696, 697); experiment: phage binding ELISA; biotinylated anti-CD28 Fab on neutravidin plate, anti-M13 HRP detection
T1 construct: Biotinylated and captured on neutravidin coated plates in the phage ELISA

[2] = biological target: T1, Anti-CD28 Fab (SEQ ID NOs: 696, 697); experiment: phage binding ELISA on captured anti-CD28 Fab; competitor CD28 antigen
Ab-15 [3] = experiment: BLI (Octet): sensor loaded with 200 nM biotinylated peptide, 100 nM Ab-15;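 further: binding association and dissociation tracked in real time, fitted to a 1:1 binding model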
Ab-15 [4] = experiment: binding ELISA: biotinylated peptide on neutravidin plate, Ab-15 titrated
Ab-15 [5] = experiment: competition ELISA: peptide titrated against 1 nM Ab-15; competitor plate-bound CD28

Binder: TCSAGAHYPWPICL [Peptide-150]
- IC50 (anti-CD28 Fab): 4760 nM

B1: Phage-455 (peptide)
peptide: WECLKYTEANACTY
notes: Clonal phage supernatant; also called Peptide-76; not shown: fused to the pIII filament protein of the bacteriophage
- Anti-CD28 Fab (SEQ ID NOs: 696, 697) signal [1]: 1.55
- Anti-CD28 Fab signal in the presence of CD28 [2]: 0.07

Binder: LCAAGASWPWPVCL [Peptide-138]
- IC50 (anti-CD28 Fab): 3610 nM

Binder: TCAAGATYLWPTCL [Peptide-153]
- IC50 (anti-CD28 Fab): 8420 nM

Binder: SCSAGAAYYWPWCL [Peptide-151]
- IC50 (anti-CD28 Fab): 80500 nM

Binder: TCAAGATWSWPACF [Peptide-142]
- IC50 (anti-CD28 Fab): 620 nM

Binder: LCAAGATYPWPLCL [Peptide-144]
- IC50 (anti-CD28 Fab): 3040 nM

Binder: LCAAGATYPWPTCL [Peptide-147]
- IC50 (anti-CD28 Fab): 8150 nM

B2: Phage-460 (peptide)
peptide: WCWDYKLWVPTQCP
modifications: cysteine pairing not given here; also: displayed as fusion to phage pIII, linker and pIII sequence not given here
notes: Clonal phage supernatant; also called Peptide-81; not shown: fused to the pIII filament protein of the bacteriophage
- Anti-CD28 Fab (SEQ ID NOs: 696, 697) signal [1]: 2.27
- Anti-CD28 Fab signal in the presence of CD28 [2]: 0.14

Binder: IDWCPRDLWVHCFA (cysteine pairing not given here; also: biotinylated, site not given here, CD28 peptide mask) [Peptide-60]
- Octet signal (Ab-15 [3]): 0.845
- t1/2 (Ab-15 [3]): 3.1 min
- EC50 (Ab-15 [4]): 44.9 nM
- IC50 (Ab-15 [5]): 2660 nM

Binder: PDWCPRDLWVHCFA (cysteine pairing not given here; also: biotinylated, site not given here, CD28 peptide mask) [Peptide-64]
- Octet signal (Ab-15 [3]): 0.328
- t1/2 (Ab-15 [3]): 3.4 min
- EC50 (Ab-15 [4]): 102 nM
- IC50 (Ab-15 [5]): 8340 nM

Binder: FDWCPRDLWVHCFA (cysteine pairing not given here; also: biotinylated, site not given here, CD28 peptide mask) [Peptide-63]
- Octet signal (Ab-15 [3]): 1.01
- t1/2 (Ab-15 [3]): 3.3 min
- EC50 (Ab-15 [4]): 39.3 nM
- IC50 (Ab-15 [5]): 780 nM

Binder: LDWCPRDLWVHCFA (cysteine pairing not given here; also: biotinylated, site not given here, CD28 peptide mask) [Peptide-61]
- Octet signal (Ab-15 [3]): 1.37
- t1/2 (Ab-15 [3]): 4.5 min
- EC50 (Ab-15 [4]): 23.4 nM
- IC50 (Ab-15 [5]): 630 nM

Binder: YDWCPRDLWVHCFA (cysteine pairing not given here; also: biotinylated, site not given here, CD28 peptide mask) [Peptide-68]
- Octet signal (Ab-15 [3]): 0.849
- t1/2 (Ab-15 [3]): 2.9 min
- EC50 (Ab-15 [4]): 32.2 nM
- IC50 (Ab-15 [5]): 3250 nM

Binder: SDWCPRDLWVHCFA (cysteine pairing not given here; also: biotinylated, site not given here, CD28 peptide mask) [Peptide-65]
- Octet signal (Ab-15 [3]): 0.551
- t1/2 (Ab-15 [3]): 2.9 min
- EC50 (Ab-15 [4]): 66.5 nM
- IC50 (Ab-15 [5]): 2630 nM

Binder: VDWCPRDLWVHCFA (cysteine pairing not given here; also: biotinylated, site not given here, CD28 peptide mask) [Peptide-69]
- Octet signal (Ab-15 [3]): 0.919
- t1/2 (Ab-15 [3]): 2.9 min
- EC50 (Ab-15 [4]): 32.5 nM
- IC50 (Ab-15 [5]): 4420 nM

Binder: WDWCPRDLWVHCFA (cysteine pairing not given here; also: biotinylated, site not given here, CD28 peptide mask) [Peptide-67]
- Octet signal (Ab-15 [3]): 1.15
- t1/2 (Ab-15 [3]): 4.1 min
- EC50 (Ab-15 [4]): 21.7 nM
- IC50 (Ab-15 [5]): 2800 nM

B3: Phage-471 (peptide)
peptide: SCAAGASYAWPYCL
notes: Clonal phage supernatant; also called Peptide-92; not shown: fused to the pIII filament protein of the bacteriophage
- Anti-CD28 Fab (SEQ ID NOs: 696, 697) signal [1]: 1.49
- Anti-CD28 Fab signal in the presence of CD28 [2]: 0.05

Binder: TCSAGATYTWPKCF [Peptide-141]
- IC50 (anti-CD28 Fab): 2220 nM

Binder: TCSAGAAYSWPACF [Peptide-146]
- IC50 (anti-CD28 Fab): 16100 nM

B4: Phage-454 (peptide)
peptide: YWSCFQIPFTCFYF
notes: Clonal phage supernatant; also called Peptide-75; not shown: fused to the pIII filament protein of the bacteriophage
- Anti-CD28 Fab (SEQ ID NOs: 696, 697) signal [1]: 1.44
- Anti-CD28 Fab signal in the presence of CD28 [2]: 0.27

Binder: SCSAGAHYPWPQCF [Peptide-148]
- IC50 (anti-CD28 Fab): 5670 nM

Binder: TCSAGATYEWPRCL [Peptide-149]
- IC50 (anti-CD28 Fab): 2660 nM

B5: Phage-459 (peptide)
peptide: GCQYPWAFDAMSCP
modifications: cysteine pairing not given here; also: displayed as fusion to phage pIII, linker and pIII sequence not given here
notes: Clonal phage supernatant; also called Peptide-80; not shown: fused to the pIII filament protein of the bacteriophage
- Anti-CD28 Fab (SEQ ID NOs: 696, 697) signal [1]: 2.38
- Anti-CD28 Fab signal in the presence of CD28 [2]: 0.07

Binder: TCSAGASYPWPLCL [Peptide-139]
- IC50 (anti-CD28 Fab): 2190 nM

Binder: TCSAGAAYPWPLCL [Peptide-145]
- IC50 (anti-CD28 Fab): 7700 nM

B6: Phage-456 (peptide)
peptide: FMCLPQNPHPLCFK
notes: Clonal phage supernatant; also called Peptide-77; not shown: fused to the pIII filament protein of the bacteriophage
- Anti-CD28 Fab (SEQ ID NOs: 696, 697) signal [1]: 0.84
- Anti-CD28 Fab signal in the presence of CD28 [2]: 0.06

B7: Phage-457 (peptide)
peptide: PDCQTILFKPWCVR
modifications: cysteine pairing not given here; also: displayed as fusion to phage pIII, linker and pIII sequence not given here
notes: Clonal phage supernatant; also called Peptide-78; not shown: fused to the pIII filament protein of the bacteriophage
- Anti-CD28 Fab (SEQ ID NOs: 696, 697) signal [1]: 2.09
- Anti-CD28 Fab signal in the presence of CD28 [2]: 0.06

Binder: TCAAGAAWPWPQCL [Peptide-140]
- IC50 (anti-CD28 Fab): 760 nM

B8: Phage-458 (peptide)
peptide: ACDTYFAGMINECF
modifications: cysteine pairing not given here; also: displayed as fusion to phage pIII, linker and pIII sequence not given here
notes: Clonal phage supernatant; also called Peptide-79; not shown: fused to the pIII filament protein of the bacteriophage
- Anti-CD28 Fab (SEQ ID NOs: 696, 697) signal [1]: 0.92
- Anti-CD28 Fab signal in the presence of CD28 [2]: 0.1

Binder: TCAAGAAWGWPLCF [Peptide-143]
- IC50 (anti-CD28 Fab): 2560 nM

Binder: TCSAGATWAWPLCF [Peptide-152]
- IC50 (anti-CD28 Fab): 2220 nM

Binder: TCSAGATWPWPICL [Peptide-137]
- IC50 (anti-CD28 Fab): 890 nM

Binder: TCAAGAHYPWPACL [Peptide-154]
- IC50 (anti-CD28 Fab): 2200 nM
